Tests used:
[1] = target: the molecule itself; test: crystal structure; FtsQ (58–276) with FtsB (22–103), co-purified complex at 6 mg/ml; P4(1)2(1)2, 2.6 Å, molecular replacement; 0.15 M potassium thiocyanate, 20% PEG 550 MME, 0.1 M sodium cacodylate pH 6.5, 19°C
[2] = target: T1, FtsQ (58–276), periplasmic domain of E. coli FtsQ (Escherichia coli strain K-12, UniProt P06136 58-276); test: SPR; FtsQ (58–276) immobilised on a CM5 chip by amide coupling (~1,000 RU); Biacore T200, 20°C; 10 mM HEPES pH 7.4, 150 mM NaCl, 0.4% glycerol; analytes injected 120 s, 600 s dissociation, 1:2 dilution series, triplicate; conditions: both partners purified
T1 construct: FtsQ, Escherichia coli K-12, periplasmic domain (alpha and beta domains), residues 58-276; construct printed as M-58-276-GSH6; No tag cleavage is described; also called FtsQ (residues 58 to 276); Q: M-58-276-GSH6; source: E. coli C41(DE3), purified (HisTrap, Sephacryl S300); not shown: His6, C-terminal, kept

[3] = target: T2, FtsQ (58–276) and FtsB (22–103) added together (Escherichia coli strain K-12 | E. coli, UniProt P06136 58-276; P0A6S5 22-103); test: SPR; FtsL (58–121) immobilised on a CM5 chip by amide coupling (~3,300 RU); Biacore T200, 20°C; 10 mM HEPES pH 7.4, 150 mM NaCl, 0.4% glycerol; FtsQ (58–276) and FtsB (22–103) from 40 µM each, alone or in combination; conditions: both partners purified
T2 construct: FtsQ, Escherichia coli K-12, periplasmic domain, residues 58-276; as m1; as m2; The two proteins were injected in combination (40 µM each at the start of the dilution series) over immobilised FtsL; also called FtsB and FtsQ; FtsQB complex; source: E. coli C41(DE3), each purified separately (HisTrap, Sephacryl S300), injected in combination
T2 sequence (P06136 58-276, chain 1 of 2, one chain of several): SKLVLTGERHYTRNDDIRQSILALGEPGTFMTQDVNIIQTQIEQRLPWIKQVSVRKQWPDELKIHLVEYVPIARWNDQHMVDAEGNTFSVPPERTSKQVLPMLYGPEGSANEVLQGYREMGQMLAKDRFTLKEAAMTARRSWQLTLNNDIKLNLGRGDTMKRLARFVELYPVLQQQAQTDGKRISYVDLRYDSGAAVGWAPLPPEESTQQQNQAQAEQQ

T1 sequence (P06136 58-276): as the sequence (P06136 58-276, chain 1 of 2, one chain of several) above

Binder	binding result [1]	Kd [2] [µM]	Kd [3] [µM]
FtsB (22–103), periplasmic domain of E. coli FtsB (domain or fragment, UniProt P0A6S5 22-103, looked up, No tag cleavage is described; source: E. coli C41(DE3), purified (HisTrap, Sephacryl S300); not shown: His6, N-terminal, kept) GKNGIHDYTRVNDDVAAQQATNAKLKARNDQLFAEIDDLNGGQEALEERARNELSMTRPGETFYRLVPDASKRAQSAGQNNR	binds	0.8	
FtsL (58–121), periplasmic domain of E. coli FtsL (domain or fragment, UniProt P0AEN4 58-121, looked up, FtsL, E. coli, periplasmic domain, residues 58-121; Cloned into pET15b like FtsB; source: E. coli C41(DE3), purified (HisTrap, Sephacryl S300)) HHTRLLTAQREQLVLERDALDIEWRNLILEENALGDHSRVERIATEKLQMQHVDPSQENIVVQK			11

— paper PMC6134095, “Structural Analysis of the Interaction between the Bacterial Cell Division Proteins FtsQ and FtsB” (mBio, 2018)
